{
  "source": "patent US10118965B2",
  "about": "“Compositions and methods related to anti-EGFR antibody drug conjugates” (LegoChem Biosciences, Inc., priority 2015, dated 2018)",
  "key": {"[1]": {"target": "epidermal growth factor receptor (EGFR) (human) (UniProt P00533)", "experiment": "flow cytometry on A431 cells, 2 µg/mL human IgG1 negative control, anti-human IgG1-PE secondary (cell only: 11.7)"}, "[2]": {"target": "epidermal growth factor receptor (EGFR) (human) (UniProt P00533)", "experiment": "flow cytometry on A431 cells, 2 µg/mL human IgG1 negative control, anti-human IgG1-PE secondary (cell only: 10.84)"}, "[3]": {"target": "epidermal growth factor receptor (EGFR) (human) (UniProt P00533)", "experiment": "flow cytometry on A431 cells, 2 µg/mL human IgG1 negative control, anti-human IgG1-PE secondary (cell only: 11.76)"}, "[4]": {"target": "epidermal growth factor receptor (EGFR) (human) (UniProt P00533)", "experiment": "flow cytometry on A431 cells, 0.5 µg/mL primary antibody, anti-human IgG1-PE secondary"}, "MCF-7 cells": {"system": "MCF-7 cells", "experiment": "In vitro cytotoxicity, SRB assay, MCF-7 cells", "assay_type": "cell-based", "conditions": "MCF7 (EGFR low), 72 hours", "procedure": "(§1) A431 cells, which express high levels of EGFR, and MCF-7 cells, which express low levels of EGFR, were plated at about 1000 cells per well in a 96-well plate in 100 μL of media. HCC-827 cells, which express an intermediate level of EGFR were plated at about 500 cells per well in a 96-well plate in 100 μL of media. The cells were incubated at 37° C. in 5% CO2 for 24 hours. […] The cells were incubated for 72 hours and then fixed for 1 hour at 4° C. after adding 100 μL of ice-cold 10% tricholoracetic acid to each well. Viable cells were counted using SRB dye (Sulphorhodamine, Sigma S 1402) and a Molecular Devices SpectraMax 190 plate reader running Softmax Pro v5, monitoring absorbance at 540 nm (FIG. 12)."}, "HCC-827 cells": {"system": "HCC-827 cells", "experiment": "In vitro cytotoxicity, SRB assay, HCC-827 cells", "assay_type": "cell-based", "conditions": "HCC-827 (EGFR Intermediate: del E746_A750), 72 hours", "procedure": "as §1"}, "A431 cells": {"system": "A431 cells", "experiment": "In vitro cytotoxicity, SRB assay, A431 cells", "assay_type": "cell-based, human", "conditions": "A431 (EGFR high), 72 hours", "procedure": "as §1"}},
  "note": "Where a SMILES comes first, the peptide text is derived from it. [ ]: non-standard residue; d: D form. Dolaproine = CO[C@@H]([C@@H]1CCCN1)[C@@H](C)C(=O)O; Dil = CC[C@H](C)[C@H](NC)[C@@H](CC(=O)O)OC; NMeV = CN[C@H](C(=O)O)C(C)C",
  "data": [
    {"molecule": "Human IgG1 (antibody)", "values": [
      {"measurement": "Geometric Mean (PE-A fluorescence)", "setting": "[1]", "result": 10.9},
      {"measurement": "Peak Channel (PE-A fluorescence)", "setting": "[2]", "result": 11.4},
      {"measurement": "Median (PE-A fluorescence)", "setting": "[3]", "result": 11.4}
    ]},
    {"molecule": "Erbitux(LC)-G7CVIM (antibody)", "values": [
      {"measurement": "Geometric Mean (PE-A fluorescence)", "setting": "[4]", "result": 160}
    ]},
    {"molecule": "CC[C@H](C)[C@@H]([C@@H](CC(=O)N1CCC[C@H]1[C@H](OC)[C@@H](C)C(=O)N[C@@H](Cc1ccccc1)C(=O)OC)OC)N(C)C(=O)[C@@H](NC(=O)[C@@H](NC)C(C)C)C(C)C", "note": "[MMAF-Ome, monomethyl auristatin F-Ome] (H-[NMeV]V[Dil][Dolaproine]F-OMe)", "values": [
      {"measurement": "IC50", "setting": "MCF-7 cells", "result": 1.81, "unit": "nM"},
      {"measurement": "IC50", "setting": "HCC-827 cells", "result": 1.99, "unit": "nM"},
      {"measurement": "IC50", "setting": "A431 cells", "result": 1.11, "unit": "nM"}
    ]}
  ]
}
